The source of these data is patent publication US20140072613A1, “Compositions and Methods for Treating Cutaneous Scarring” (priority 2012, published 2014).

Test in all cases: biochemical
Common to all, as to assay type: biochemical

In test [1] the target is 266 human kinases (Homo sapiens, UniProt P36888, D835Y). The conditions noted are these: Flt3(D835Y)(h); 100 μM. Summed up: (§1)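 A filter-capture radiometric assay: phosphorylated cationic substrate binds an anionic membrane and is scintillation-counted, with values referenced to full-activity control.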
Test [2] deals with 266 human kinases (Homo sapiens, UniProt P57059). Particulars: SIK(h); 100 μM. Summed up:
as §1

Test [3] deals with 266 human kinases (Homo sapiens, UniProt Q9P0L2). Particulars: MARK1(h); 100 μM. The essentials: as §1
Sequence of 266 human kinases (Homo sapiens, UniProt Q9P0L2) (Q9P0L2 whole entry): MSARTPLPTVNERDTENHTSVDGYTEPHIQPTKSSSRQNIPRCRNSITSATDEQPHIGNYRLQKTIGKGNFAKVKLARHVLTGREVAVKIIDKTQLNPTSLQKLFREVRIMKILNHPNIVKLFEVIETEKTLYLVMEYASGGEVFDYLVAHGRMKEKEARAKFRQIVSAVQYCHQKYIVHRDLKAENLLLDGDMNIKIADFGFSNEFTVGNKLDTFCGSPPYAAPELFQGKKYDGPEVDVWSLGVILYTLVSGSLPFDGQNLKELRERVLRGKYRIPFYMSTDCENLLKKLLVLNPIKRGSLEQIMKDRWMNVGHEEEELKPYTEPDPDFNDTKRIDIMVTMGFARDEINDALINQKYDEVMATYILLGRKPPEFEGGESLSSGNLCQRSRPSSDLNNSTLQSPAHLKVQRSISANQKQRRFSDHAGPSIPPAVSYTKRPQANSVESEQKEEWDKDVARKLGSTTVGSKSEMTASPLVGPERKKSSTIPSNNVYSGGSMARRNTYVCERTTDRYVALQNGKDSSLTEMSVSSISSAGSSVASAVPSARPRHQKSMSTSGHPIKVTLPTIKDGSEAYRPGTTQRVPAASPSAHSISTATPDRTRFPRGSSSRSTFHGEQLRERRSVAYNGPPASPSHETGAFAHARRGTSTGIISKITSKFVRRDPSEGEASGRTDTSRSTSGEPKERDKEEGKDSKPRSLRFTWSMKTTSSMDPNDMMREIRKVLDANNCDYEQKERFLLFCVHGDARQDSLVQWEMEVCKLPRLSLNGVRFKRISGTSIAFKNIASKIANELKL
Test [4] addresses 266 human kinases (Homo sapiens, UniProt P00519, Y253F). Particulars: Abl(Y253F)(h); 100 μM. Summed up:
as §1

For test [5], the target named is 266 human kinases (Homo sapiens, UniProt O15264). Particulars: SAPK4(h); 100 μM. The essentials:
as §1

For test [6], the target named is 266 human kinases (Homo sapiens, UniProt P07949, V804M). Particulars: Ret(V804M)(h); 100 μM. The essentials:
as §1

The target in test [7] is T1, 266 human kinases (Homo sapiens, UniProt P21709).
T1 sequence (P21709 26-976): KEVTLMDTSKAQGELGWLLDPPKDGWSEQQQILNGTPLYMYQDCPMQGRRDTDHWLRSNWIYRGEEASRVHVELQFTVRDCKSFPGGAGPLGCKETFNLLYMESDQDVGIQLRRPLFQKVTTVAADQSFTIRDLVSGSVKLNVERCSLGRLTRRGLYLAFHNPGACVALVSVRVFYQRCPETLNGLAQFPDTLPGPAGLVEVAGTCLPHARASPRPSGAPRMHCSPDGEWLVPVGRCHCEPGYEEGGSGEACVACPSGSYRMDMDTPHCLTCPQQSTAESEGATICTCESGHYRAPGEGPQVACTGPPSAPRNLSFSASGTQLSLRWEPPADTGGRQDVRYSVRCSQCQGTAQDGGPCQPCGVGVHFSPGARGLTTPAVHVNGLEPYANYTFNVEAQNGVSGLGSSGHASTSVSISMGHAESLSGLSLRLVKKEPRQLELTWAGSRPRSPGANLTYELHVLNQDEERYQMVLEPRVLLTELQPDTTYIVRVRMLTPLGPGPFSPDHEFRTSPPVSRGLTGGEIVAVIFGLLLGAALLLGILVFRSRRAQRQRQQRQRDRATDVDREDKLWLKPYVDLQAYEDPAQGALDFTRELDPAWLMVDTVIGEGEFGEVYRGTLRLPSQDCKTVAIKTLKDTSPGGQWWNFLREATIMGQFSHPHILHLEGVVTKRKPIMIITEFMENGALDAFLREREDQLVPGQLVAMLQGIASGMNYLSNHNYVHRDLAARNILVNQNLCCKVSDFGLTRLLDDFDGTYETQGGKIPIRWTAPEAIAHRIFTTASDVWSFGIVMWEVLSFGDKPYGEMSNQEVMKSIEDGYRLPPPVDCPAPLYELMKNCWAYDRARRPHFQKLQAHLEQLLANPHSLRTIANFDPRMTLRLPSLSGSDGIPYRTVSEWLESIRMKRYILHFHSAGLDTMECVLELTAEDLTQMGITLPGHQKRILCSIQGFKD
Particulars: EphA1(h); 100 μM. Summed up:
as §1

The target of test [8] is 266 human kinases (Homo sapiens, UniProt P00519, H396P). The conditions noted are these: Abl(H8396P)(h); 100 μM. The essentials: as §1
The target of test [9] is T2, 266 human kinases (Homo sapiens, UniProt O14920).
T2 sequence (O14920 1-756): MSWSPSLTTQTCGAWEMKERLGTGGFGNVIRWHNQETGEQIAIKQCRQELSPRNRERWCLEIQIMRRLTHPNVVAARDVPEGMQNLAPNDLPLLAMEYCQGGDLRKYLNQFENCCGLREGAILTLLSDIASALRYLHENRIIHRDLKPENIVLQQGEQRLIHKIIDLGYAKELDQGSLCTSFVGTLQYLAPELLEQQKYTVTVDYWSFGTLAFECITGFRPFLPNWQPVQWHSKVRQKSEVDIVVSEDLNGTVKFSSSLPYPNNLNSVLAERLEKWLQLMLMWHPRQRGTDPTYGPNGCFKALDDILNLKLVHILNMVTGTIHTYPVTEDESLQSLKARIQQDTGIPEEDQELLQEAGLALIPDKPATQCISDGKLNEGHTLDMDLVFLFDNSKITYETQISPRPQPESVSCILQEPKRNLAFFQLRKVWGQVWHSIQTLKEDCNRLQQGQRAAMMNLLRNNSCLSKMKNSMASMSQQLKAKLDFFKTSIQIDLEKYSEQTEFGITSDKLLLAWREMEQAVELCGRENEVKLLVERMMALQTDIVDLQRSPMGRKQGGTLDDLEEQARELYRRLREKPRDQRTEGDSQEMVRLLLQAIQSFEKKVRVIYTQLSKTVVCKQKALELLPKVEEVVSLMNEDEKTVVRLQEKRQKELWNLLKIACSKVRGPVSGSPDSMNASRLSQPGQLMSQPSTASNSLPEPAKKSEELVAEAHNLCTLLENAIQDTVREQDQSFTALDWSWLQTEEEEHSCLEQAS
Particulars: IKKβ(h); 100 μM. Summed up: as §1

Sequence of 266 human kinases (Homo sapiens, UniProt O15264) (O15264 whole entry): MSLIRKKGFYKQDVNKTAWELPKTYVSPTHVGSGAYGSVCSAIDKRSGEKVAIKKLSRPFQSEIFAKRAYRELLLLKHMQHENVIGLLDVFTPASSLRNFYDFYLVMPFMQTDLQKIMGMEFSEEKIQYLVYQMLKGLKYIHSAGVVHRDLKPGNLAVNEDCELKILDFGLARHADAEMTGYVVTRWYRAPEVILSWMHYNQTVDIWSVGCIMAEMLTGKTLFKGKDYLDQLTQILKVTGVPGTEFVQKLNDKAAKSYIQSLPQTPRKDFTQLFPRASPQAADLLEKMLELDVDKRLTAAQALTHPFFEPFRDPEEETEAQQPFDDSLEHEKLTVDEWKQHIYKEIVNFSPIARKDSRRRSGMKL
Sequence of 266 human kinases (Homo sapiens, UniProt P57059) (P57059 whole entry): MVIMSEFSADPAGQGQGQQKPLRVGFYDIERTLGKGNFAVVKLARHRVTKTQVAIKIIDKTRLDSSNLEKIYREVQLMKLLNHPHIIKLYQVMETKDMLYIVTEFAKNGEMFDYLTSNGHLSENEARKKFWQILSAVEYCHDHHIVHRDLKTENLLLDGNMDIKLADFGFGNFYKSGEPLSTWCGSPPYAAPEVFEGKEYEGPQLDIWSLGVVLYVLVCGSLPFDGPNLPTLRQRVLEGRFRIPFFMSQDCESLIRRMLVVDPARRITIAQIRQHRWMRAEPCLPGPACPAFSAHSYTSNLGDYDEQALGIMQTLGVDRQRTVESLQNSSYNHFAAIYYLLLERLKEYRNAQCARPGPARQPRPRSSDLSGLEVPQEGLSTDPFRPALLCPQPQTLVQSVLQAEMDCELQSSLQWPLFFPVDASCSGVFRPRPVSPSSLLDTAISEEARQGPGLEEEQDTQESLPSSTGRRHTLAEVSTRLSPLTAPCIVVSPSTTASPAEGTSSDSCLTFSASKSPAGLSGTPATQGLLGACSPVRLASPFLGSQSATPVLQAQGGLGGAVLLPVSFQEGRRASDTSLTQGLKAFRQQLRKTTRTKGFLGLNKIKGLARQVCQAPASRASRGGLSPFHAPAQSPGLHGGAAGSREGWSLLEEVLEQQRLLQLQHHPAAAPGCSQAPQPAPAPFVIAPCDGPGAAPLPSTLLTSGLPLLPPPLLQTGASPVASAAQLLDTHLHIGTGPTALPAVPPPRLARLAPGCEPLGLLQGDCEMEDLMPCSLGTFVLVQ

As for “HRRIKAWLKKIKALARQLGVAA (mammal) [MMI-0500]”, the “% activity” value with 266 human kinases [1] was found to be 65%; with 266 human kinases [2], 40%; with 266 human kinases [3], 110%; with 266 human kinases [4], 29%; in the test with 266 human kinases [5], 48%; with 266 human kinases [6], 36%. Besides, the entries for the “% activity” value with 266 human kinases [7], with 266 human kinases [8] and in the test with 266 human kinases [9] were 40%, 51% and 71%, respectively.
